40 sequences from the nanobody polyreactivity screen of Harvey et al. (2022) can be followed below.

The data set in a line: yeast display, Sf9 membrane polyspecificity reagent, FACS + sequencing; frameworks hold sequencing errors. Put shortly:
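Polyreactivity labels are assigned by the sorting gate from which each nanobody was recovered. The gates were low and high (top ~1%), set on anti-HA fluorescence for expression and streptavidin fluorescence for reagent binding. Before sorting, galactose-induced (36–48 hours) yeast display cells were stained for 1 hour at 4 °C with 10% biotinylated, detergent-solubilized Sf9 membrane reagent.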
On to “QVQLVESGGGLVQAGGSLRLSCAASGNIFPAYAMGWYRQAPGKERELVATISRRGGGTYYADSVKGRFTISRDNAKNTVYLQMNSLKPEDTAVYYCNVAGWTSAYDYWGQGTQVTVSS”, for which the “polyreactivity (PSR sort gate)” value is reported as “low polyreactivity”.

With “QVQLVESGGGLVQAGGSLRLSCAASGSTFYKNAMGWNRQAPGKERELVASISRSGGSTSYADSVKGRFTISRDNAKNTVYLQMNSLKPEDTAVYYCAATWRQHPGSMGYWGQGTQVTVSS”, the “polyreactivity (PSR sort gate)” value is reported as “high polyreactivity”.

On to “QVQLVESGGGLVQAGGSLRLSCAASGSIFIANTMGWYRQAPGKERELVAAISSDGGSTYYADSVKGRFTISRDNAKNTVYLQMNSLKPVDTAVYYCAVDGLEIGDTGFDYWGQGTQVTVSS”, for which the “polyreactivity (PSR sort gate)” value is “low polyreactivity”.

Consider “QGQLVESGGGLVQAGGSLSLSCAASRFTFQRYAMGWDRQAPGKERELVAAISVSGGRTYYADSVKGRFTISRDNAKNSVYLQMNSLKPEDTAVYYCAAEGFLGWYYYWGQGNQVTVSS”, for which the “polyreactivity (PSR sort gate)” value was “high polyreactivity”.

Consider “QVHLVESGGGLVQAGGSLRLSCDASGSIIDGYGMGWYRQAPGKERELVASITWNDGSTYYADSVKGRFTISRDNAKNTVYLQMNSLKPEDTAVYYCAADQWGYEYDYWGQGTQVTVSS”, for which the “polyreactivity (PSR sort gate)” value is “low polyreactivity”.

“QVQLVESGGGLVQAGGSLRLSCAASGFIFSSYAMGWYRQAPGKERELVAAITSGGSTNYADSVKGRFTISRDNAKNTVYLQMNSLKPEDTAVYYCATVPGRSWFFHWWSTGGDDEYWGQGTQVTVSS”: the “polyreactivity (PSR sort gate)” value is given as “low polyreactivity”.

Consider “QVQLVESGGGLVQAGGSLRLSCAASGSIFYGYAMGWSRQAPGKERELVAVITDGGGSTYYADSVKGRFTISRDNAKNTVYLQMNSLKPEDTAVYYCAADSWGPYYYSSYSYDYWGQGTQVTVSS”, for which the “polyreactivity (PSR sort gate)” value was “low polyreactivity”.

“QVQLVESGGGLVQAGGSLRLSCAASGNTFVYNDMGWYRQAPGKERELVADIRYSGSTYYADSVKGRFTISRDNAKNTVYLQMNSLKPEDTAVYYCAKAYYVLSWMGYWGQGTQVTVSS”: the “polyreactivity (PSR sort gate)” value is “low polyreactivity”.

As to “QVQLVESGGGLVQAGGSLRLSCAASGSTFGINAMGWYRQAPGKERELVASITRRGGSTYYADSVKGRFTISRDNAKNTVYLQMHSLKPEDTAVYYCAAGNKRRFEGDYWGQGTQVTVSS”, the “polyreactivity (PSR sort gate)” value is “high polyreactivity”.

As for “QVQLVESGGGLVQAGGSLRLSCAASGSTFTRYGMGWYRQAPGKEREMVAAITTSGSSTYYADSVKGRFTISRDNAKNTVYLQMNSLKPEDTAVYYCAADWSSWGFDYWGQGTQVNVSS”, the “polyreactivity (PSR sort gate)” value was “low polyreactivity”.

Regarding “QVQLVESGGGLVQAGGSLRLSCAASGRIFKYYDMGWYRQAPGKERELVARISSGGGRTYYADSVKGRFKISRDNAKNTVYLQMNSLKPEDTAVYYCAADPPASYHTWYGYWGQGTQVTVSS”, the “polyreactivity (PSR sort gate)” value is on record as “high polyreactivity”.

For “QVQLVESGGGLVQAGGSLRLSCAASGSTFGPYAMGWYRQAPGKERELVATIRGSGATTYYADSVKGRFTISRDNAKNTVYLQMHSLKPEDTAVYYCATAYFSGWYNRYGRATSYDYWGQGTQVTVSS”, the “polyreactivity (PSR sort gate)” value is recorded as “high polyreactivity”.

Consider “QVQLVESGGGLVQAGGSLRLSCAASGRLFYSYAMGWYRQAPGKERELVAAIGRGGGTTYADSVKGRFTISRDNAKNTVYLQMNSLKPEDTAVYYCAADWHSTPRHTMDYWGQGTQVTVSS”, for which the “polyreactivity (PSR sort gate)” value is reported as “low polyreactivity”.

On to “QVQLVESRGGLVQAGGSLRLSCAASGSIFWLYAMGLYRQAPGKERELVAAIDSGDSTKYADSVKGRFTISRDNAKNTVYLQMNSLKREDTAVYYCNASRRYHVLAPYDYWGQGTQVTVSS”, for which the “polyreactivity (PSR sort gate)” value is “low polyreactivity”.

In the case of “QVQLVESGGGLVQAGGSLRLSCAASGSTFTLYAMGWYRQAPGKERELVATIDWSGGSTYYADSVKGRFTISRDNAKNTVYLQMNSLKPEDTAVYYCAADSYVVFYRGYTFIAVHSYEYWGQGTQVTVSS”, the “polyreactivity (PSR sort gate)” value is “low polyreactivity”.

“QVQLVESGGGLVQAGGSLRLSCAASGFIFWEYAMGWYRQAPGKERELVAVISYRGGSTYYADSVKGRFTISRDNAKNTVYLQMNSLKPEDTAVYYCNADTIPDGEDRYDYWGQGTQVTVSS”: the “polyreactivity (PSR sort gate)” value is listed as “low polyreactivity”.

In the case of “QVQLVESGGGLLHAGGSLRLSCAASGLIFSDYVMGWYRQAPWKERELVAGITTGGSTKYADSVKWRFTISRDNAKTTVYLQMNSLKPEDTAVYYCAVGKYNYRGSWDYYWGQGTQVTLSS”, the “polyreactivity (PSR sort gate)” value is on record as “high polyreactivity”.

Regarding “QVQLVESGGGLVQAGGSLRLSCAASGRIFGFYAMGWYRQAPGKERELVARITLSGGRTYYADSVKGRFTISRDNAKNTVYLQMNSLKPEDTAVYYCAADSIGRLWGYGYWGQGTQVTVSS”, the “polyreactivity (PSR sort gate)” value is reported as “high polyreactivity”.

Regarding “QVQLVESGGGLVQAGGSLRLSCAASGIIFTDYAMGWYRQAPGIERELVAAISGSGGSTYYADSVKGRFTISRDNAKNTVYLQMNSLKPEDTAVYYCAAATHIFLQVYYAYGYWGQGTQVTVSS”, the “polyreactivity (PSR sort gate)” value is listed as “high polyreactivity”.

Take “QDQLVDSGGGLVQAGGNLRLSCAASGRTFPPYSMGWDRQAPGKERELVAAISGSGASTYYADSEKGRFTISRDNAKNTVYLQMNCLKPEDSAVYYCARYRGYWGRYYGVDYGYWGQGTQVTVSS”: the “polyreactivity (PSR sort gate)” value was “high polyreactivity”.

Take “QVQLVESGGGLVQAVGSLRLICAPSGSIFGTNAMGWYRQAPGKERELVATISYGDGSTYYADSVKGRFTISRDNAKNTVYLQMNSLKPEDTAVYYCNTGVYSSGGPLDYWGQGTQVTVSS”: the “polyreactivity (PSR sort gate)” value is reported as “low polyreactivity”.

“QVQLEESGGGLVQAGGSLRLSCAASGFTFRLYAMGWYRHAPGKERELFARISSGGSTHYADSVKGRFTISRDNAKNTVFLQMNSLKPEDTAVYYCAAGWGYWRSYGSWGQGTQVTFSS”: the “polyreactivity (PSR sort gate)” value was “high polyreactivity”.

“QVQLVESGGGLVQAGGSLRLSCADSGFIFTPYTMGWYRQAPGKERELVAAITDGSSTYYADSVKGRFTISRDNAKYTVYLQINSLKPEDTAVYYCNADGKPPYISWLYDYWGQGTQVTVSS”: the “polyreactivity (PSR sort gate)” value is given as “low polyreactivity”.

With “QVQLVESAGGLVQAGGSLRLSCAASGRIFTNNAMGWYRQAPGKERELVAAISRSGGRTYYADTVKGRFTISRDNAKNTVYVQMNSLKPEDTAVSYCAALGPYGSARRKYGYWGQGTQVTVSS”, the “polyreactivity (PSR sort gate)” value is on record as “high polyreactivity”.

With “QVQLVESGGGLVQEGGSLRLICAASGRILRDNAMGWYRQAPGKERELVAAISVSTVSTYYADSVKGLFTISRDNANNTVYFHMNSLKPEDTAVYYCNADATDSYPEKDEHDSWGQGTQVTVSS”, the “polyreactivity (PSR sort gate)” value was “low polyreactivity”.

As for “QVQLVESRGVLVQAGGSLRLSCAASGYIFAPYAMGWYRPAPGKERELVSAISWRGGSTYYADSVKGRFTISRDNAKITVYLQMNSLKPVDTAVYFCAAQGYGSGLSYYRFDFWGLGTQVTVSS”, the “polyreactivity (PSR sort gate)” value was “high polyreactivity”.

As for “QVQLVESGGGLVQAGGSLRLSCAASGTIFSDYAMGWYRQAPGKERELVATITSRGGSTHYADSVKGRFTISRDNAKNTVYLQMNSLKPEDTAVYYCIVRRLYVYTITSGDVDYDYWGQGTQVTVSS”, the “polyreactivity (PSR sort gate)” value is on record as “low polyreactivity”.

In the case of “QVQLVESGGGLVQAGGSLRLSCAASGIIFWVNAMGWYRQAHGKETELVAAITISGVSTYYADSVKGRFTISRDNAKNTVYLQMNSLKPEDTAVYYCAKDPTFSSSFAVSLGFDSWGQGTQVTVSS”, the “polyreactivity (PSR sort gate)” value is given as “low polyreactivity”.

For “QVQLVESGGGLFQAGGSLRLSCAASGSTFWFNAMGWYRQAPGKERELVAAITSGDGTNYADSVKGRFTISRDNAKNTVYLQMNSLKPEVTAVYYCATVYADESGIEGYSWGQGTQVTVSS”, the “polyreactivity (PSR sort gate)” value is given as “low polyreactivity”.

As for “QVQLVESGGGLVQAGGSLRLSCAASGLTFGGNAMGWYRQAPGKERELVAAISGSGGRTYYADSVKGRFTISRDNEKNTVYLQMNSLKPEDTAVYYCNAATNRRTSDYWGQGTQVTVSS”, the “polyreactivity (PSR sort gate)” value is “high polyreactivity”.

As for “QVQLVESGGGLGQAGGSLRLSCAASGSIFSAYAMGWYRPAPGKERELVAGISKRGGSTYYADSVKGRFTISRDNAKNTVYLQMNSLKAEDTAVYYCTAARYTVVTKLFDYWGQGTQVTVSS”, the “polyreactivity (PSR sort gate)” value is on record as “high polyreactivity”.

Consider “QVQLVESGGGLVQAGGSLRLSCAASGRIFPYYTMGWYREAPGKERELVATITTGGSTNYADSVKGRFTISRDNAENTVYLQMNSLKPEDTAVYYCNKDGVVEVRFTGRQEYDYWGQGTQVTVSS”, for which the “polyreactivity (PSR sort gate)” value was “low polyreactivity”.

Take “QVHLVESCGGLVQAGGSLRLSCAASGITFWNYAMGRYRQAPGKETELVAAISYSGGSTYYADSVKGRFTISRDNAKNTFYLQMNSLKPEDTGVYYCAATLPTNWVRYDYWGQGTQVTVSS”: the “polyreactivity (PSR sort gate)” value is “low polyreactivity”.

In the case of “QVQLVESGGGLVHAGGSLRLSCAASGLIFPRYAMGSYRQAPGKERELVAAISRSGGNTYYADSVKGRFTISRDNAKNTVYLQMNSLKPEDTAVYYCAAYFSTAPKSQYKLDYWGQGTQVTVSS”, the “polyreactivity (PSR sort gate)” value is on record as “high polyreactivity”.

For the sequence “QVQLVESGGGLVQAGGSLRLSCAASGFTFRTYAMGWYRQAPGKERELVAAISKSGGSTYYADSVKGRFTISRDNAKNTVYLQMNSLTPEDTAVYYCNAGEASWFSLHYYWGQGTQVTVSS”, the “polyreactivity (PSR sort gate)” value was “high polyreactivity”.

As for “QVQLVESGGGLVQGGGSLRLSCAASGLIFYRNDMVWNRQAPGKERELVDAISKNGANTYYADSVKGRFTSSRDNAKNTVYLHMNCLKREDTAVYYCAKGVYYPWWYVQPEHDYWGQVTQVTVSS”, the “polyreactivity (PSR sort gate)” value is given as “high polyreactivity”.

On to “QVQLVESGGGLVQAGGSLRLSCAASGSIFYYNAMGWYRQAPGKERELVAAITSGDSTNYADSVKGRFTISRDNAKNPVYLQMNSLKPEDTAVYYCAADYLAALTYYRTYDYWGQGTQVTVSS”, for which the “polyreactivity (PSR sort gate)” value is reported as “low polyreactivity”.

For “QVQLVESGGGLVQAGGSLRLSCAASGFTFRVNAMGWYRQAPGKERELVAAISSGGGITYYADSVKGRYTISRDNAKNTVYLQMNSLKPEDTAVYYCAARENRYLERDYWGQGTQVNVSS”, the “polyreactivity (PSR sort gate)” value is given as “low polyreactivity”.

Turning to “QVQLQESGGGLEQAGGSLRLSCAASGYIFPTAIKGWYRQAPGKERKLVAAINPGSNTYYADSVKGRFTFSRDNANNSVYLQMNSLKPEDAAVYYCGVSIWLVGTLDYWGQGTQVTVSS”, the “polyreactivity (PSR sort gate)” value is reported as “low polyreactivity”.

As for “QVQLVESGGGLVQAGGSLRLSCAPSGRIFSYNTMGWYRQAPGKERELVAAISRGGSTYYADSVKGRFTISRDNAKNTVYLQMNSLKPEDTAVYYCNALLPPGSRKYNYWGQGTQVTVSS”, the “polyreactivity (PSR sort gate)” value is on record as “high polyreactivity”.
